Measurements reported in patent US20160185837A1 (Medimmune Limited, priority 2013, published 2016).
“And” between values parts separate entries of the source, which are not always exact repeats. Equal entries are not always repeated.

T1: human GIP receptor (hGIPr) (Homo sapiens, UniProt P48546)
T1 construct: expressed in transfected cells
T1 sequence (P48546 22-466): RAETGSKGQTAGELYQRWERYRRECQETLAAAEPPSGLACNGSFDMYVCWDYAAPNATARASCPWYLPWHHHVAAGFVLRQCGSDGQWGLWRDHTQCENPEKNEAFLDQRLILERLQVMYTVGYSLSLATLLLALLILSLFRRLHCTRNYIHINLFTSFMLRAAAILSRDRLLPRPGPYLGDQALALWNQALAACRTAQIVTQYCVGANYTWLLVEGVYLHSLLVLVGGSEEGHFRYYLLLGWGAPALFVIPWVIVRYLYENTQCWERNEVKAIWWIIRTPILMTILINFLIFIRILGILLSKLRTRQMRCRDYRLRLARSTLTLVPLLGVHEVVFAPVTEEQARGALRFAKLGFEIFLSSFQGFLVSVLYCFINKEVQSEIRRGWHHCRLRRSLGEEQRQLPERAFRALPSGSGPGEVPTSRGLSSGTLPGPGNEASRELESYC

T2: mouse GLP-1 receptor (mGLP-1r) (Mus musculus, UniProt O35659)
T2 construct: expressed in transfected cells; host or cells: HEK293s or CHO cells
T2 sequence (O35659 22-463): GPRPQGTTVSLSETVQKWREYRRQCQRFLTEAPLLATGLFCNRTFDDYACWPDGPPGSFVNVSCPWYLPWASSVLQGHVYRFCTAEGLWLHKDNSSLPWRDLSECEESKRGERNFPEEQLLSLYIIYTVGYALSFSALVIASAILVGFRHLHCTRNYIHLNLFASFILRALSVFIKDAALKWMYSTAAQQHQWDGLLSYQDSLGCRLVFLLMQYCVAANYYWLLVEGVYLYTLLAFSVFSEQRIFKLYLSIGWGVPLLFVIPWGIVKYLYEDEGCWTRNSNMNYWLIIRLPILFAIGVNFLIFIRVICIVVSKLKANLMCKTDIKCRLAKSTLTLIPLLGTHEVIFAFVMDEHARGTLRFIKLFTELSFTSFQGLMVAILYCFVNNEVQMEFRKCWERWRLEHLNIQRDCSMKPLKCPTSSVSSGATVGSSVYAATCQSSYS

T3: mouse GIP receptor (mGIPr) (Mus musculus, UniProt Q0P543)
T3 construct: expressed in transfected cells; host or cells: HEK293s or CHO cells
T3 sequence (Q0P543 19-460): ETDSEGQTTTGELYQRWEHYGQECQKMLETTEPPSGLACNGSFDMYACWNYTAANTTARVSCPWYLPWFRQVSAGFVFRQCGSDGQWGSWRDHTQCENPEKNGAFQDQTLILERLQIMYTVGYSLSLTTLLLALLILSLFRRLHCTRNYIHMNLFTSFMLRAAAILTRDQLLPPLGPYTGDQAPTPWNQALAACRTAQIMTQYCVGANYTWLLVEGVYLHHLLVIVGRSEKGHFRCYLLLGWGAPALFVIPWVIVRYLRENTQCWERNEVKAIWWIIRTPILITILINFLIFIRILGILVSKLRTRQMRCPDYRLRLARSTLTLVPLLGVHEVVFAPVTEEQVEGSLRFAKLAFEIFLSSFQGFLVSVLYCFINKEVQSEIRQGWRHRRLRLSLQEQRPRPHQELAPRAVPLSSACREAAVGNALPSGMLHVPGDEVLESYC

T4: rat GLP-1 receptor (rGLP-1r) (Rattus norvegicus, UniProt P32301)
T4 construct: expressed in transfected cells; host or cells: HEK293s or CHO cells
T4 sequence (P32301 22-463): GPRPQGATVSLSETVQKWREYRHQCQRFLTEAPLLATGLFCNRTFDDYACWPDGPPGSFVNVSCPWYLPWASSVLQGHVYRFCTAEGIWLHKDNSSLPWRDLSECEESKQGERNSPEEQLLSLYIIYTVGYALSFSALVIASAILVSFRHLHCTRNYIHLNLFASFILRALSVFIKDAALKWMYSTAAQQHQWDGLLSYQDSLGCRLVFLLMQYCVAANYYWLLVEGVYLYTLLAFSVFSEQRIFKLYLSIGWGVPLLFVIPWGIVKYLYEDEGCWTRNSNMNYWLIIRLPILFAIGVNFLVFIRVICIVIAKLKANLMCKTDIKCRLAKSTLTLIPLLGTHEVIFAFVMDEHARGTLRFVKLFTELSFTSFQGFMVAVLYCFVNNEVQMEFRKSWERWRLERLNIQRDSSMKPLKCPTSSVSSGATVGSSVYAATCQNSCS

T5: rat GIP receptor (rGIPr) (Rattus norvegicus, UniProt P43219)
T5 construct: expressed in transfected cells; host or cells: HEK293s or CHO cells
T5 sequence (P43219 19-455): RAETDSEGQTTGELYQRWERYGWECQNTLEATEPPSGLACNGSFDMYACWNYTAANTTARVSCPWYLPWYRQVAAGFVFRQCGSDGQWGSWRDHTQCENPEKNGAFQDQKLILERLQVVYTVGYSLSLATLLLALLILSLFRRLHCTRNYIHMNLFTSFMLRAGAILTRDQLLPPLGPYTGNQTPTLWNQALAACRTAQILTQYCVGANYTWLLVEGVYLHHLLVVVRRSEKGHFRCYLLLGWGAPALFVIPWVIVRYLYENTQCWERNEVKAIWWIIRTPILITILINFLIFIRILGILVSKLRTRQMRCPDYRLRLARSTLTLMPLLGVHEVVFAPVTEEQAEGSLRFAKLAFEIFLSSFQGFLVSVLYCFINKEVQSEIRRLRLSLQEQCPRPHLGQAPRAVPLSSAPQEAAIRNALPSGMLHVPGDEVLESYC


What was measured:
Format in all cases: cell-based
[1] = target: T6, human GLP-1 receptor (hGLP-1r) (Homo sapiens, UniProt P43220); assay: BSA-cAMP assay, cells expressing human GLP-1 receptor; details: BSA-cAMP assay; batch 1 unless a batch is given; read-out: cAMP activity hGLP1r (EC50)
T6 construct: expressed in transfected cells
T6 sequence (P43220 24-463): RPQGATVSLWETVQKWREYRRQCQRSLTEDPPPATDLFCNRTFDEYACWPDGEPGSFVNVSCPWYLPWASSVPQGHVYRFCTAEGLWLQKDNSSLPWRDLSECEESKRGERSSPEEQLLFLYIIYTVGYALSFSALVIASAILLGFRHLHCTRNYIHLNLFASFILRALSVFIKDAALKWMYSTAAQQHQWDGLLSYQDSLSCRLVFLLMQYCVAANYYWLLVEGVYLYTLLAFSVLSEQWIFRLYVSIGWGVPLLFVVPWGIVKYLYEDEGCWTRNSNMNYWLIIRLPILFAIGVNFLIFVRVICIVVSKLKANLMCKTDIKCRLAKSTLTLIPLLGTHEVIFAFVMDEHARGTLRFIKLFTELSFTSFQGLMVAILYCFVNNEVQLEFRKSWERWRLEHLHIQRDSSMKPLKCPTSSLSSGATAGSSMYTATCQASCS
Description: (§1) One basic cAMP assays was performed, differing in the medium used for the assay, the “BSA-cAMP assay”:
(§2) BSA-based assay medium: 0.1% bovine serum albumin (BSA) in
(§3) In certain aspects, the assay can also be carried out in medium supplemented with serum albumin that corresponds to the receptor being tested, e.g., human serum albumin for testing cAMP activity at hGIPr or hGLP-1r, rat serum albumin for testing cAMP activity at rGIPr or rGLP-1r, and so on. […] All sample dilutions were made in duplicate.
(§4) A frozen cryo-vial of cells expressing the receptor of interest was thawed rapidly in a water-bath, transferred to pre-warmed assay media and spun at 240×g for 5 minutes. Cells were re-suspended in assay buffer at an optimized concentration (e.g., hGLP-1r and hGIPr cells at 0.5×10^5 cells/ml).
(§5) To this, 5 μL cell suspension was added and the plates incubated at room temperature for 30 minutes.
(§6) cAMP levels were measured using a commercially available cAMP dynamic 2 HTRF kit (Cisbio, Cat #62AM4PEJ), following the two step protocol as per manufacturer's recommendations. In brief; anti-cAMP cryptate (donor fluorophore) and cAMP-d2 (acceptor fluorophore) were made up separately by diluting each 1/20 in conjugate & lysis buffer provided in the kit. 5 μL anti-cAMP cryptate was added to all wells of the assay plate, and 5 μL cAMP-d2 added to all wells except non-specific binding (NSB) wells, to which conjugate and lysis buffer was added. […] Data was transformed to % Delta F as described in manufacturer's guidelines and then transformed to percent activation of maximal native agonist response and analysed by 4-parameter logistic fit to determine EC50 values.
(§7) We used unconstrained 4 parameter logistic fit of data, curve mid-point to determine EC50. This was tested on two occasions, not two batches.

[2] = target: T1, human GIP receptor (hGIPr); assay: BSA-cAMP assay, cells expressing human GIP receptor; details: BSA-cAMP assay; batch 1 unless a batch is given; read-out: cAMP activity hGIPr (EC50)
Description: For human GIPr, two different lines were used, shown as “hGIPr” and “hGIPr (C3)” in Table 11.
as §1, §2, §3, §4, §5, §6, §7

[3] = target: T7, human glucagon receptor (GCGr) (Homo sapiens, UniProt P47871); assay: BSA-cAMP assay, cells expressing human glucagon receptor; details: batch 1 unless a batch is given, read-out: cAMP activity hGCGr (EC50)
T7 construct: expressed in transfected cells; host or cells: HEK293s or CHO cells
T7 sequence (P47871 26-477): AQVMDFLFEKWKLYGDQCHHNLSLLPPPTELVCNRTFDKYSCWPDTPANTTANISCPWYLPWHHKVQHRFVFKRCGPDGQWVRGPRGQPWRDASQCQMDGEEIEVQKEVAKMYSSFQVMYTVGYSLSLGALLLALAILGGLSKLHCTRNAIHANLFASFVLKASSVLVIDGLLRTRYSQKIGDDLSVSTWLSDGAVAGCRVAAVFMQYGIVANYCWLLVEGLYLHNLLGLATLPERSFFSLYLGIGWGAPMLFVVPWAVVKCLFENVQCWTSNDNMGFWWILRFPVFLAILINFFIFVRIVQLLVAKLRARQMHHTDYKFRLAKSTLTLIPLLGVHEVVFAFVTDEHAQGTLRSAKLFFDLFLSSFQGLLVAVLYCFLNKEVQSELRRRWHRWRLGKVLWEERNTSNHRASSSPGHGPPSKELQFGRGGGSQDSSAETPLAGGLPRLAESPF
Description: as §1, §2, §3, §4, §5, §6, §7

[4] = target: T2, mouse GLP-1 receptor (mGLP-1r); assay: BSA-cAMP assay, cells expressing mouse GLP-1 receptor; details: BSA-cAMP assay; read-out: cAMP activity mGLP1r (EC50)
Description: as §1, §2, §3, §4, §5, §6, §7
(§8) In order to be able to carry out in vivo studies in rodents, IP088 was tested for potency against the mouse receptors mGIPr and mGLP-1r as well as the rat receptors rGIPr and rGLP-1r, using cells expressing the respective receptors in the cAMP assay described above.

[5] = target: T3, mouse GIP receptor (mGIPr); assay: BSA-cAMP assay, cells expressing mouse GIP receptor; details: BSA-cAMP assay; read-out: cAMP activity mGIPr (EC50)
Description: as §1, §2, §3, §4, §5, §6, §7, §8

[6] = target: T4, rat GLP-1 receptor (rGLP-1r); assay: BSA-cAMP assay, cells expressing rat GLP-1 receptor; details: BSA-cAMP assay; read-out: cAMP activity rGLP1r (EC50)
Description: as §1, §2, §3, §4, §5, §6, §7, §8

[7] = target: T5, rat GIP receptor (rGIPr); assay: BSA-cAMP assay, cells expressing rat GIP receptor; details: BSA-cAMP assay; read-out: cAMP activity rGIPr (EC50)
Description: as §1, §2, §3, §4, §5, §6, §7, §8

| EC50 [1] | EC50 [2] | EC50 [3] [nM] | EC50 [4] | EC50 [5] [nM] | EC50 [6] | EC50 [7] [nM] | Molecule |
| --- | --- | --- | --- | --- | --- | --- | --- |
| 4100 nM | 0.0085 nM and 0.0078 nM | 900 |  |  |  |  | IP207 (protein, /note=“Description of Artificial Sequence Synthetic Peptide-linker-hinge polypeptide”) YAEGTFISDYSIAMDKIHQQDFVNWLLAQKGKKNDWKHNITQAAAGGSGSTASSGSGSATGGGGAATHTCPPCPAPELL |
| 16 nM | 2.5 nM |  | 80 nM |  | 18 nM | 72 | IP223 (protein, /note=“Description of Artificial Sequence Synthetic Peptide-linker-hinge polypeptide”) YSEGTFTSDVSSYMEEEAIDEFIAWLLKGGAAAGGSGSTASSGSGSATGGGGAATHTCPPCPAPEF |
| 0.2 nM | 0.025 nM |  | 1 nM | 7.5 | 0.061 nM | 0.27 | IP226 (protein, /note=“Description of Artificial Sequence Synthetic Peptide-linker-hinge polypeptide”) YSEGTFTSDVSKLLERQAIDEFIAWLLKGGAAAGGSGSTASSGSGSATGGGGAATHTCPPCPAPEF |
| 500 nM | 0.0038 nM | 350 |  |  |  |  | IP188 (protein, /note=“Description of Artificial Sequence Synthetic Peptide-linker-hinge polypeptide”) YSEGTFISDYSIAMDKIHQQDFVNWLLAQKAPPGGGGGSGGGGSGGGGSGGGGSATHTCPPCPAPEF |
| 0.041 nM and 0.023 nM and 0.038 nM | 27 nM |  | 0.13 nM |  | 0.014 nM |  | IP015 (protein, /note=“Description of Artificial Sequence Synthetic Peptide-linker-hinge polypeptide”) HGEGTFTSDVSSYLEGQAAKEFIAWLVKGAAAGGSGSTASSGSGSATGGGGAATHTCPPCPAPEF |

The remaining lines, values behind:

| Molecule | EC50 [1] | EC50 [2] | EC50 [3] [nM] | EC50 [4] | EC50 [5] [nM] | EC50 [6] | EC50 [7] [nM] |
| --- | --- | --- | --- | --- | --- | --- | --- |
| IP170 (protein, /note=“Description of Artificial Sequence Synthetic Peptide-linker-hinge polypeptide”) YSEGTFTSDVSSYMERQAIDEFIAWLLKGGAAAGGSGSTASSGSGSATGGGGAATHTCPPCPAPEF | 0.12 nM | 0.079 nM |  | 0.85 nM | 34 | 0.06 nM | 2.3 |
| IP250 (protein, /note=“Description of Artificial Sequence Synthetic Peptide-linker-hinge polypeptide”) YSEGTFTSDVSIAMDRQAIDEFIAWLLKGGAAAGGSGSTASSGSGSATGGGGAATHTCPPCPAPEF | 1.1 nM | 0.11 nM |  | 22 nM | 35 | 2.2 nM | 5.3 |
| IP209 (protein, /note=“Description of Artificial Sequence Synthetic Peptide-linker-hinge polypeptide”) YSEGTFTSDYSSYMERQAIDEFIAWLLKGGAAAGGSGSTASSGSGSATGGGGAATHTCPPCPAPEF | 0.23 nM and 0.2 nM |  | > 6270 | 0.84 nM and 1.6 nM |  | 0.075 nM and 0.091 nM |  |
| IP203 (protein, /note=“Description of Artificial Sequence Synthetic Peptide-linker-hinge polypeptide”) HGEGTFTSDVSSYLEGQAAKEFIAWLVKGGAAAGGSGSTASSGSGSATGGGGAATHTCPPCPAPEF | 0.042 nM | 110 nM | > 650 |  |  |  |  |
| IP146 (protein, /note=“Description of Artificial Sequence Synthetic Peptide-linker-hinge polypeptide”) HGEGTFTSDVSSYLEGQAAKEFIAWLVKGAAAGGSGSTASSGSGSATGGGGAACPPCPAPEF | 0.049 nM | 83 nM | 650 |  |  |  |  |
